Measured values: patent US20140255414A1

Target: Aβ(pE11-30) peptide
Experiment: direct ELISA, adsorbed Aβ(pE11-30), 1 µg/ml biotinylated antibody with SA-HRP

Sequence of Aβ(pE11-30) peptide (peptide, as listed by the source): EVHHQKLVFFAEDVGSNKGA

- ELISA signal relative to clone 13: 5 times lower
Substance: biotinylated monoclonal mouse anti Aβ(17-24) antibody (clone 4G8, Covance)
